Positions count from the first letter of the chain named. Each block holds one binder with its values, some of them ahead of it.
What was measured:
Test in all cases: scFv ELISA
BSA = BSA (UniProt P02769)
[1] = target: Peptide 1: Biotin-…-[Tyr(PC)]-acid
[2] = target: Peptide 5: Biotin-…-[Tyr(PC)]-acid
[3] = target: T1, Peptide 4: Biotin-AGGGGSGGGGSGGGGSAAA-Tyr-acid (N-terminal biotin; C-terminal acid)
T1 construct: Control peptide without PC
T1 peptide: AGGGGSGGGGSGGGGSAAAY
How it was run: (§1)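 Bound scFv was read as OD450 after HRP–anti-V5 detection, TMB development and HCl stop. PPE with BSA was incubated 1 h at RT on BSA-blocked wells coated overnight at 4° C. with peptide, or on streptavidin wells loaded 1 h with biotinylated PC-peptides at 1 μg/mL.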

[4] = target: T2, Peptide 8: Biotin-AEAAAKEAAAKEAAAKEAAAKAAA-Tyr-acid (N-terminal biotin; C-terminal acid)
T2 construct: Control peptide without PC
T2 peptide: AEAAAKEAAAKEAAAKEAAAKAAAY
How it was run: as §1

Chain of BSA (P02769 25-607 limits assumed): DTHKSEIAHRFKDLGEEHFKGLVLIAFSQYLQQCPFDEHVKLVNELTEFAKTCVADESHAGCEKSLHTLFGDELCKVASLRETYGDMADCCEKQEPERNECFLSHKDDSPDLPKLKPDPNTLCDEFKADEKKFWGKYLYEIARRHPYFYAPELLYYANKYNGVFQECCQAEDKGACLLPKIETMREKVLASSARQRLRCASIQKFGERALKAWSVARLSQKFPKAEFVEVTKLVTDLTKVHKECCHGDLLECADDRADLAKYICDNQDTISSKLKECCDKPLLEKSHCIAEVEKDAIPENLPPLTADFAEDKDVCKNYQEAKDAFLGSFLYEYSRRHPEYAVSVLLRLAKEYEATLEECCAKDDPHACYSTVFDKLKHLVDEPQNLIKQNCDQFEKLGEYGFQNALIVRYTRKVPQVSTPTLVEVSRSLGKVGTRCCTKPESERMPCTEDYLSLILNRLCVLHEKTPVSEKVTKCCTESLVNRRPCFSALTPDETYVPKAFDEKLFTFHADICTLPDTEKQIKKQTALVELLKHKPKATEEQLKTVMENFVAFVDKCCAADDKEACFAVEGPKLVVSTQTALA

B4: PcOxP_DB03_B07 (scFv, V domains shown)
VH: EVQLLESGGGLVQPGGSLRLSCAASGFGFSDFYMEWVRQAPGKGLEWVAASRNKANDYTTEYADSVKGRFTISRDNSKNTLYLQMNSLRAEDTAVYYCARDYYSSSYWYFDVWGQGTLVTVSS
VL: DIVMTQSPDSLAVSLGERATINCTASESLYSSKHKVHYLAWYQQKPGQPPKLLIYGASNRYIGVPDRFSGSGSGTDFTLTISSLQAEDVAVYYCAQFYSYPLTFGGGTKVEIK
notes: scFv in periplasmic extract
OD450 (BSA): 0.12 OD450 | OD450 [1]: 0.66 OD450 | OD450 [2]: 0.81 OD450 | OD450 [3]: 0.06 OD450 | OD450 [4]: 0.05 OD450

B5: PcOxP_DB03_B08 (scFv, V domains shown)
VH: B4 VH with G28T, F32Y, S104G
VL: B4 VL with Q96N
notes: scFv in periplasmic extract
OD450 (BSA): 0.07 OD450 | OD450 [1]: 2.63 OD450 | OD450 [2]: 1.95 OD450 | OD450 [3]: 0.05 OD450 | OD450 [4]: 0.04 OD450

B6: PcOxP_DB03_B10 (scFv, V domains shown)
VH: B4 VH with G28T, F32Y, T59N, S104G
VL: B4 VL
notes: scFv in periplasmic extract
OD450 (BSA): 0.08 OD450 | OD450 [1]: 0.41 OD450 | OD450 [2]: 0.71 OD450 | OD450 [3]: 0.05 OD450 | OD450 [4]: 0.05 OD450

B7: PcOxP_DB03_C01 (scFv, V domains shown)
VH: B4 VH with G28T, Y62V, S104G, Y107N
VL: B4 VL with H34I, S58H
notes: scFv in periplasmic extract
OD450 (BSA): 0.08 OD450 | OD450 [1]: 0.84 OD450 | OD450 [2]: 1.47 OD450 | OD450 [3]: 0.05 OD450 | OD450 [4]: 0.05 OD450

B8: PcOxP_DB03_B06 (scFv, V domains shown)
VH: B4 VH with F27I, G28T, A55Y, S104G
VL: B4 VL with I62T
notes: scFv in periplasmic extract
OD450 (BSA): 0.06 OD450 | OD450 [1]: 0.68 OD450 | OD450 [2]: 1.01 OD450 | OD450 [3]: 0.04 OD450 | OD450 [4]: 0.05 OD450

B9: PcOxP_DB03_D03 (scFv, V domains shown)
VH: B4 VH with G28T, F32Y, S104F
VL: B4 VL
notes: scFv in periplasmic extract
OD450 (BSA): 0.1 OD450 | OD450 [1]: 0.73 OD450 | OD450 [2]: 1.11 OD450 | OD450 [3]: 0.04 OD450 | OD450 [4]: 0.04 OD450

B11: PcOxP_DB03_B09 (scFv, V domains shown)
VH: B4 VH with G28T, D31S, F32Y, S104G
VL: B4 VL with S58A
notes: scFv in periplasmic extract
OD450 (BSA): 0.08 OD450 | OD450 [1]: 1.09 OD450 | OD450 [2]: 0.89 OD450 | OD450 [3]: 0.05 OD450 | OD450 [4]: 0.05 OD450

B14: PcOxP_DB02_H09 (scFv, V domains shown)
VH: B4 VH with G28T, D31S, F32Y, T60Y, S104E
VL: B4 VL
notes: scFv in periplasmic extract
OD450 (BSA): 0.07 OD450 | OD450 [1]: 0.25 OD450 | OD450 [2]: 0.58 OD450 | OD450 [3]: 0.04 OD450 | OD450 [4]: 0.04 OD450

B15: PcOxP_DB03_C10 (scFv, V domains shown)
VH: B4 VH with G28T, D31S, F32Y, D57E, S104G
VL: B4 VL with S58G
notes: scFv in periplasmic extract
OD450 (BSA): 0.07 OD450 | OD450 [1]: 1.1 OD450 | OD450 [2]: 1.1 OD450 | OD450 [3]: 0.05 OD450 | OD450 [4]: 0.04 OD450

B17: PcOxP_DB03_A10 (scFv, V domains shown)
VH: B4 VH with F27W, G28T, S104G
VL: B4 VL with N59Q, S99L
notes: scFv in periplasmic extract
OD450 (BSA): 0.06 OD450 | OD450 [1]: 0.6 OD450 | OD450 [2]: 0.54 OD450 | OD450 [3]: 0.04 OD450 | OD450 [4]: 0.04 OD450

B22: PcOxP_DB03_A05 (scFv, V domains shown)
VH: B4 VH with G28T, D31E, S104G
VL: B4 VL with Y61A, S99F
notes: scFv in periplasmic extract
OD450 (BSA): 0.06 OD450 | OD450 [1]: 0.93 OD450 | OD450 [2]: 0.78 OD450 | OD450 [3]: 0.04 OD450 | OD450 [4]: 0.04 OD450

The remaining lines, values ahead:

OD450 (BSA): 0.07 OD450 | OD450 [1]: 0.4 OD450 | OD450 [2]: 1.34 OD450 | OD450 [3]: 0.04 OD450 | OD450 [4]: 0.06 OD450
B1: PcOxP_DB02_H08 (scFv, V domains shown)
VH: B4 VH with G28T, F32A, S104G, S106H
VL: B4 VL with A25S, E27Q, K35N, V36K
notes: scFv in periplasmic extract

OD450 (BSA): 0.07 OD450 | OD450 [1]: 2.11 OD450 | OD450 [2]: 1.72 OD450 | OD450 [3]: 0.04 OD450 | OD450 [4]: 0.04 OD450
B2: PcOxP_DB03_C04 (scFv, V domains shown)
VH: B4 VH with G28T, S104G, F110N
VL: B4 VL with S99T
notes: scFv in periplasmic extract

OD450 (BSA): 0.08 OD450 | OD450 [1]: 0.99 OD450 | OD450 [2]: 1.07 OD450 | OD450 [3]: 0.05 OD450 | OD450 [4]: 0.05 OD450
B3: PcOxP_DB03_A06 (scFv, V domains shown)
VH: B4 VH with G28T, D31S, F32Y, N53S, S104G, S106Q
VL: B4 VL with S32N
notes: scFv in periplasmic extract

OD450 (BSA): 0.06 OD450 | OD450 [1]: 0.21 OD450 | OD450 [2]: 0.64 OD450 | OD450 [3]: 0.04 OD450 | OD450 [4]: 0.04 OD450
B10: PcOxP_DB03_B01 (scFv, V domains shown)
VH: B4 VH with G28T, D31S, F32Y, K54T, S104G
VL: B4 VL with Y61E
notes: scFv in periplasmic extract

OD450 (BSA): 0.07 OD450 | OD450 [1]: 0.5 OD450 | OD450 [2]: 0.72 OD450 | OD450 [3]: 0.05 OD450 | OD450 [4]: 0.05 OD450
B12: PcOxP_DB03_B11 (scFv, V domains shown)
VH: B4 VH with G28T, M34V, D57T, S104G
VL: B4 VL with S58Q, A95G
notes: scFv in periplasmic extract

OD450 (BSA): 0.07 OD450 | OD450 [1]: 1.12 OD450 | OD450 [2]: 1.1 OD450 | OD450 [3]: 0.04 OD450 | OD450 [4]: 0.04 OD450
B13: PcOxP_DB03_B03 (scFv, V domains shown)
VH: B4 VH with G28T, F32G, S104G
VL: B4 VL with S99V
notes: scFv in periplasmic extract

OD450 (BSA): 0.06 OD450 | OD450 [1]: 0.98 OD450 | OD450 [2]: 0.9 OD450 | OD450 [3]: 0.05 OD450 | OD450 [4]: 0.05 OD450
B16: PcOxP_DB03_C08 (scFv, V domains shown)
VH: B4 VH with F27S, G28T, Y58F, S104G
VL: B4 VL with I62S, S99H
notes: scFv in periplasmic extract

OD450 (BSA): 0.07 OD450 | OD450 [1]: 2.28 OD450 | OD450 [2]: 1.67 OD450 | OD450 [3]: 0.06 OD450 | OD450 [4]: 0.05 OD450
B18: PcOxP_DB03_A12 (scFv, V domains shown)
VH: B4 VH with G28T, F32G, E61A, S104G
VL: B4 VL with A95G
notes: scFv in periplasmic extract

OD450 (BSA): 0.09 OD450 | OD450 [1]: 0.67 OD450 | OD450 [2]: 1.37 OD450 | OD450 [3]: 0.05 OD450 | OD450 [4]: 0.04 OD450
B19: PcOxP_DB03_D02 (scFv, V domains shown)
VH: B4 VH with G28T, F32Y, S104G
VL: B4 VL with S58T, Q96E
notes: scFv in periplasmic extract

OD450 (BSA): 0.06 OD450 | OD450 [1]: 0.19 OD450 | OD450 [2]: 0.47 OD450 | OD450 [3]: 0.04 OD450 | OD450 [4]: 0.04 OD450
B20: PcOxP_DB03_A04 (scFv, V domains shown)
VH: B4 VH with F27D, G28T, T59S, S104G
VL: B4 VL with T24E
notes: scFv in periplasmic extract

OD450 (BSA): 0.06 OD450 | OD450 [1]: 1.21 OD450 | OD450 [2]: 0.85 OD450 | OD450 [3]: 0.05 OD450 | OD450 [4]: 0.05 OD450
B21: PcOxP_DB03_B12 (scFv, V domains shown)
VH: B4 VH with G28Q, N53W, S104G
VL: B4 VL
notes: scFv in periplasmic extract

OD450 (BSA): 0.06 OD450 | OD450 [1]: 0.94 OD450 | OD450 [2]: 1.01 OD450 | OD450 [3]: 0.04 OD450 | OD450 [4]: 0.04 OD450
B23: PcOxP_DB03_A07 (scFv, V domains shown)
VH: B4 VH with G28H, S104G
VL: B4 VL with S28N, I62S
notes: scFv in periplasmic extract

— patent US20250320312A1 (OXITOPE PHARMA B V, published 2025)
